Data on 1 molecule can be found in publication PMC4838387, “PolDIP2 interacts with human PrimPol and enhances its DNA polymerase activities”.

The data set has as its target T1, PrimPol24-354 (AEP catalytic domain);PolDIP2 (untagged) (human;human?, UniProt Q96LW4;Q9Y2S7 24-354;1-368, |).
T1 sequence 1: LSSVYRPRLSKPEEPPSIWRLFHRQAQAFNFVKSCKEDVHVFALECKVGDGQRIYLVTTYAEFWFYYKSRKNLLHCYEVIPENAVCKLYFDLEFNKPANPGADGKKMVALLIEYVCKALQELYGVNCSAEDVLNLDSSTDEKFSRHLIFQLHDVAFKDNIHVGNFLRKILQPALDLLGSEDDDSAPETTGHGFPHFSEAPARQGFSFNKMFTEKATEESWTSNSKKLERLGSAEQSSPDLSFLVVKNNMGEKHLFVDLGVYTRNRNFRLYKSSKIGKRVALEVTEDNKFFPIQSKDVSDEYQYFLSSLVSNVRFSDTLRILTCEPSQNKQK
T1 sequence 2: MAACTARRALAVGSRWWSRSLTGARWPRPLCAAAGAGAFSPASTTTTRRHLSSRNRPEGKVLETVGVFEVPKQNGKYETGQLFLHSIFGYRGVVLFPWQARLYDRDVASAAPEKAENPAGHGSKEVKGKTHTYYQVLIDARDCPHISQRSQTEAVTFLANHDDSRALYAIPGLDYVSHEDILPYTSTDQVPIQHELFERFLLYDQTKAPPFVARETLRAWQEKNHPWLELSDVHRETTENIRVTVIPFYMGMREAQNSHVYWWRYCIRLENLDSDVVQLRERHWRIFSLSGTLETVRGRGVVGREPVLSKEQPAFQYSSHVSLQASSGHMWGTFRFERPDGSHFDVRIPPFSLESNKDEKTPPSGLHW
As to the kind of experiment: EMSA; PolDIP2 50-250 nM with PrimPol; more DNA bound than by PrimPol alone, super-shifted complex; 10 mM Mg2+; EMSA: 10 mM Bis-Tris-propane-HCl pH 7.0, 10 mM MgCl2, 100 uM DTT, 20 nM DNA; 5% native PAGE, 0.5x TBE; binding temperature not stated. Particulars: protein: recombinant;recombinant; tags: ;none (GST cleaved with PreScission protease); copies: 1;1; label: 5'-HEX on primer; 3'-biotin on template; 20 bp duplex; template 5' overhang 77 nt. (Mobility shift assays separate free from complexed probe on a gel.)

B1: 20/97-mer primer/template (HP-20 / ND-97) (mixed)
DNA 1: TGTCGTCTGTTCGGTCGTTC
DNA 2: ACCGCGAACTTGAATTCTAGTTCAGTCTAAATGCTCTCAAGCACTGAGCAATTCACAACATATGGCTTTCGATTACCGAACGACCGAACAGACGACA
In the case of B1, the binding result was “binds”.
